Consider four molecules from US20240052052A1 (ANTENGENE BIOLOGICS, published 2024).

Residue numbers refer to the chain shown, from its start.

For assay [1], the target named is T1, human CD24 (human, UniProt P25063 27-59, heavily glycosylated, GPI-anchored (as described in the background)).
T1 construct: whole, on cells; Target of all cell-based FACS assays; also called hCD24; Cluster of differentiation 24
T1 chain (looked up): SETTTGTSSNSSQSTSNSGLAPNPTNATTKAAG
Nature of the assay: FACS, 5637 cells. On the procedure:
(§1) Sequences of some of antibodies from Table 1 were selected to generate and produce human IgG4 chimeric antibodies. […] The protocol for FACs analysis is described as follows: [0536] a. Digested cells using TrypLE™ Express Enzyme (IX); Centrifuged the harvested cells at 400 g for 5 min and discarding the supernatant. [0537] b. Washed the cells 2 times with cold FACS buffer by centrifuging at 400 g for 5 min and discarding the supernatant. [0538] c. […] Incubate at […] for 1 h. [0539] d. Washed the cells twice by using the condition in step b. Resuspended the cells with 100 μl/well diluted 2nd antibody, incubated at 4 degree for 1 h in the dark. [0540] e. Washed the cells twice by using the condition in step b. Resuspended the cells with 100 μl/well cold FACS buffer. Kept the cells in dark for FACS analysis.

The target of assay [2] is T1, human CD24. Nature of the assay: cell-based or functional assay.
Assay [3] deals with T1, human CD24. The assay is described as follows: FACS, MDA-MB-468 cells. On the procedure: as §1
Assay [4] addresses T1, human CD24. Nature of the assay: FACS, Nalm1 cells. The protocol: as §1
The target of assay [5] is T1, human CD24. Nature of the assay: FACS, 293F-hCD24 cells. The protocol: as §1
In assay [6] the target is T1, human CD24. The assay is described as follows: FACS, MCF7 cells. The protocol: as §1
The target of assay [7] is T1, human CD24. Nature of the assay: FACS, CHOK1-hCD24 cells. The protocol: as §1

B1: ch100F2E3-hIgG4 (antibody, V domains shown)
VH: QVQLQQPGAELVRPGSSVKLSCKTSDYTFTSYWMDWVKQRPGQGLEWIGNIYPSDSKTHSNQKFRDKATLTVDKSSSTAYMQLNSLTSEDSAVYYCARRGGYYGYAMDYWGQGTSVTVSS
VL: DIVMTQSPSSLSVSAGEKVTMSCKSSQSLLNSGNQDNYLAWYQQKPGQPPKLLIYGASIRESGVPDRFTGSGSGTDFTLTISSVQAEDLAVYYCQNDHSYPYTFGGGTKLEIK
notes: chimeric
Consider B1, for which the EC50 was 3.42 nM in assay [1]; 7.39 nM in assay [3]; 2.78 nM in assay [4]; 3.73 nM in assay [5]; 6.85 nM in assay [6]; more than 100 nM in assay [7]. Besides, the “Max MFI” value in assay [1] was found to be 20200; in assay [3], 71900; in assay [4], 77700; in assay [5] it was 60400; in assay [6], 7960; in assay [7], 59300. For the same molecule, in assay [2], the “EC50 (nM), phagocytosis against HT-29 cells” value (“EC50 (nM), phagocytosis” for short) was 1.9 nM. In addition, the “Max phagocytosis Index (%), phagocytosis against HT-29 cells” value (“Max phagocytosis Index (%), phagocytosis” below) in assay [2] was determined as 71.2%.

B2: ch81A1F8-hIgG4 (antibody, V domains shown)
VH: EVQLQQSGPELVKPGASVKISCKATGYLFTGYYMNWVKQSPEKSLEWIGEINPNTGDTNNNQKFKAKATMTVDRSSSTAYMQLKRLTSEDSAVYYCVRRDYGTSLDYWGQGTTLTVSS
VL: DVQITQSPSYLAASPGETITINCRASKSINKYLAWYQEKPGKTNKLLIHSGSTLQSGIPSRFSGSRSGTDFTLTISNLEPEDFAMYYCQQHNEYPITFGAGTKLELK
notes: chimeric; also called chAb81A1F8; ch81A1F8-IgG4
For B2, the EC50 was found to be 2.47 nM in assay [1]; 5.75 nM in assay [3]; 1.31 nM in assay [4]; 3.35 nM in assay [5]; 2.31 nM in assay [6]; 3240 nM in assay [7]. Also, the “Max MFI” value in assay [1] was 54100; in assay [3], 90800; in assay [4], 101000; in assay [5], 117000; in assay [6], 25400; in assay [7], 85300. The “EC50 (nM), phagocytosis” value in assay [2] amounted to 0.098 nM. The “Max phagocytosis Index (%), phagocytosis” value in assay [2] stood at 76.6%.

B3: ch110D4G4-hIgG4 (antibody, V domains shown)
VH: EVQLQQSGPGLVKPGASVKISCRASGYLFTGYYMNWVKQSPEKSLEWIGEINPNTGDPRYDQKFKAKATLTVDRSSSTAYMHLKSLTSEDSAVYFCARRDYGTSLDYWGQGTTLTVTS
VL: B2 VL with N30S, H49Y, R66G, T69S, N77S, I96L
notes: chimeric; also called chAb110D4G4
Turning to B3, the EC50 in assay [1] turned out to be 2.18 nM; in assay [3], 5.44 nM; in assay [4], 1.95 nM; in assay [5], 2.82 nM; in assay [6], 2.01 nM; in assay [7] it was 35.4 nM. For the same molecule, the “Max MFI” value worked out at 49900 in assay [1]; 89700 in assay [3]; 111000 in assay [4]; 112000 in assay [5]; 22700 in assay [6]; 99500 in assay [7].

B4: ch81A7A10-hIgG4 (antibody, V domains shown)
VH: QVQLKESGPGLVAPLQSLSITCTVSGFSLSSYGVSWVRQLPGKGLEWLGVIWGDGSTDYHSTLTSRLSFSKDNSESQVFLKLNSLQTDDTATYYCAIFYGYDEGFAYWGQGTLVTVSA
VL: ENVLTQSPAIMSAFLGEKVTMSCRASSTVNYMYWYQQKSDASPKVWIYYTSRLAPGVPARFSGSGSGNSFSLTISSMEGEDAATYYCQQFTSSPLTFGAGTKLELR
With B4, in assay [2], the “EC50 (nM), phagocytosis” value was 0.157 nM and the “Max phagocytosis Index (%), phagocytosis” value was 78.4%.
